Common to all, as to assay: Kinase Profiling Assay
Common to all, as to assay type: biochemical
Common to all, as to conditions: for % activity: 100 μM

In one assay the target is KDR(h) (Homo sapiens, UniProt P35968).
A further assay deals with T1, PKG1α(h) (Homo sapiens, UniProt Q13976).
T1 sequence (Q13976 1-671): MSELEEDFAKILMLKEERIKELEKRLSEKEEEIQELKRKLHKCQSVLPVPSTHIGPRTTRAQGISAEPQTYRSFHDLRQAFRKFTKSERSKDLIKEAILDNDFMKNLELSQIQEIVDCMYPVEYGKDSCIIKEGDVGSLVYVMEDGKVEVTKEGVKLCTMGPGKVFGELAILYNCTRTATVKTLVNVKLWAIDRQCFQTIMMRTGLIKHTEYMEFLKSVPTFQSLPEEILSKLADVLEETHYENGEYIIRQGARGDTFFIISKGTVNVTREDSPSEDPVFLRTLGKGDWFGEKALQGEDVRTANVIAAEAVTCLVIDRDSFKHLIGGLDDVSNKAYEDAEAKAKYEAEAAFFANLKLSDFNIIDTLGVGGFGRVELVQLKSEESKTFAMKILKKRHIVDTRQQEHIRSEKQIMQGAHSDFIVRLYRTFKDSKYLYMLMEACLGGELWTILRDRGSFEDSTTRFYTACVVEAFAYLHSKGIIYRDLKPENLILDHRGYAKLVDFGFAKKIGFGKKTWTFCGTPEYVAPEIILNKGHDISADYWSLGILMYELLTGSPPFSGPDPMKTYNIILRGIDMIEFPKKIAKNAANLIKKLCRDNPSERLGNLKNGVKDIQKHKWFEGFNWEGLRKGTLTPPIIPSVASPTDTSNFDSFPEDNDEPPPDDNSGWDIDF

The next assay deals with T2, SGK3(h) (Homo sapiens, UniProt Q96BR1).
T2 sequence (Q96BR1 1-496): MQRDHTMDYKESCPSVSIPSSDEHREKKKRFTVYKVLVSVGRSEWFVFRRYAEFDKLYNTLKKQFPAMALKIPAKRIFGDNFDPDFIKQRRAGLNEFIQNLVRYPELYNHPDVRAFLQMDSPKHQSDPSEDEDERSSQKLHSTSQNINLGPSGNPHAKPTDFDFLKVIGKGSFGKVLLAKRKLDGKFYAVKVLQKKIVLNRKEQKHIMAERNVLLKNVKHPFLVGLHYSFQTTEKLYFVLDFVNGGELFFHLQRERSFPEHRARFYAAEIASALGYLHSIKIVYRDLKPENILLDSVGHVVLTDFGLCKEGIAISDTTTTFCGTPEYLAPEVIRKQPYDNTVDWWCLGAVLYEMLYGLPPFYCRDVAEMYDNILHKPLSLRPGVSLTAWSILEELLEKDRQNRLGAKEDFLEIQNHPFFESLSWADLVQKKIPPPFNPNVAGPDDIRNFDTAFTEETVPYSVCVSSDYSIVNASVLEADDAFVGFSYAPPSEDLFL

Another assay has as its target T3, Tec(h)activated (Homo sapiens, UniProt P42680).
T3 sequence (P42680 1-631): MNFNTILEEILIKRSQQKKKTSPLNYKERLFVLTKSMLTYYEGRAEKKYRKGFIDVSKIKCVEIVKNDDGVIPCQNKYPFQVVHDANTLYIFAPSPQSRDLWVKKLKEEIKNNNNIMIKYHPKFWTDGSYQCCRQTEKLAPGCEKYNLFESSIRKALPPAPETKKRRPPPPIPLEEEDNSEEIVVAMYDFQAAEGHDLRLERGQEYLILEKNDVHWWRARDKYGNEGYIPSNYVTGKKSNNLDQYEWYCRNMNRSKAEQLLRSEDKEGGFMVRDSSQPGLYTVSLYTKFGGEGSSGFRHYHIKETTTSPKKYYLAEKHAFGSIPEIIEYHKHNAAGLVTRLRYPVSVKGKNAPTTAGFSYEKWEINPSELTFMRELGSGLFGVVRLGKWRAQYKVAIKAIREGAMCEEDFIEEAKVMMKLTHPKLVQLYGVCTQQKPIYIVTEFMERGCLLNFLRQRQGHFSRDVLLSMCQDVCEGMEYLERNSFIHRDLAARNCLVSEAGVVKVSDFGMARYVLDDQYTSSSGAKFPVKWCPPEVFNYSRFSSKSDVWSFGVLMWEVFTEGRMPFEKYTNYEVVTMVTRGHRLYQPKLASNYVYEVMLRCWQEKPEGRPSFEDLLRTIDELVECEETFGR

The target in another assay is T4, DCAMKL2(h) (Homo sapiens, UniProt Q8N568).
T4 sequence (Q8N568 1-766): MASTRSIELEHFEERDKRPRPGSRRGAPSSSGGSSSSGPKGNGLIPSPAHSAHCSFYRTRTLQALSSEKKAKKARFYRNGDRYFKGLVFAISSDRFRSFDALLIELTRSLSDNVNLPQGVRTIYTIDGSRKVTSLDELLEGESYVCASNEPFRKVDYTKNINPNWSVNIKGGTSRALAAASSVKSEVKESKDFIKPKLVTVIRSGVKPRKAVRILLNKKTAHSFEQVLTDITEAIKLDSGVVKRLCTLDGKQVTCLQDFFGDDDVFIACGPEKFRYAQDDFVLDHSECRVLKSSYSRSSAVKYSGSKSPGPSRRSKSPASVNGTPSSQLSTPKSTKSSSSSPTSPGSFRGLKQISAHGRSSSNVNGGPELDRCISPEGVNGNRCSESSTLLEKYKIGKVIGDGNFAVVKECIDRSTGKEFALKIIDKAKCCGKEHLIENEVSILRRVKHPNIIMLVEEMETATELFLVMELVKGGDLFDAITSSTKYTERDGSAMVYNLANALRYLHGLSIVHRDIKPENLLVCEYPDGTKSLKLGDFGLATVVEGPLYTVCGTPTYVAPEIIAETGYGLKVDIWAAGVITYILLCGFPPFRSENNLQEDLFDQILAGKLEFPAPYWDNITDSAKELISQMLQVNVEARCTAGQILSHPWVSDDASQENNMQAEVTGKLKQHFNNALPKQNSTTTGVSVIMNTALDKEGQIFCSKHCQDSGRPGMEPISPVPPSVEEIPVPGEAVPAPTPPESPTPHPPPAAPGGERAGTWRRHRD

The next assay has as its target CSK(h) (Homo sapiens, UniProt P41240).

Sequence of KDR(h) (P35968 20-1356): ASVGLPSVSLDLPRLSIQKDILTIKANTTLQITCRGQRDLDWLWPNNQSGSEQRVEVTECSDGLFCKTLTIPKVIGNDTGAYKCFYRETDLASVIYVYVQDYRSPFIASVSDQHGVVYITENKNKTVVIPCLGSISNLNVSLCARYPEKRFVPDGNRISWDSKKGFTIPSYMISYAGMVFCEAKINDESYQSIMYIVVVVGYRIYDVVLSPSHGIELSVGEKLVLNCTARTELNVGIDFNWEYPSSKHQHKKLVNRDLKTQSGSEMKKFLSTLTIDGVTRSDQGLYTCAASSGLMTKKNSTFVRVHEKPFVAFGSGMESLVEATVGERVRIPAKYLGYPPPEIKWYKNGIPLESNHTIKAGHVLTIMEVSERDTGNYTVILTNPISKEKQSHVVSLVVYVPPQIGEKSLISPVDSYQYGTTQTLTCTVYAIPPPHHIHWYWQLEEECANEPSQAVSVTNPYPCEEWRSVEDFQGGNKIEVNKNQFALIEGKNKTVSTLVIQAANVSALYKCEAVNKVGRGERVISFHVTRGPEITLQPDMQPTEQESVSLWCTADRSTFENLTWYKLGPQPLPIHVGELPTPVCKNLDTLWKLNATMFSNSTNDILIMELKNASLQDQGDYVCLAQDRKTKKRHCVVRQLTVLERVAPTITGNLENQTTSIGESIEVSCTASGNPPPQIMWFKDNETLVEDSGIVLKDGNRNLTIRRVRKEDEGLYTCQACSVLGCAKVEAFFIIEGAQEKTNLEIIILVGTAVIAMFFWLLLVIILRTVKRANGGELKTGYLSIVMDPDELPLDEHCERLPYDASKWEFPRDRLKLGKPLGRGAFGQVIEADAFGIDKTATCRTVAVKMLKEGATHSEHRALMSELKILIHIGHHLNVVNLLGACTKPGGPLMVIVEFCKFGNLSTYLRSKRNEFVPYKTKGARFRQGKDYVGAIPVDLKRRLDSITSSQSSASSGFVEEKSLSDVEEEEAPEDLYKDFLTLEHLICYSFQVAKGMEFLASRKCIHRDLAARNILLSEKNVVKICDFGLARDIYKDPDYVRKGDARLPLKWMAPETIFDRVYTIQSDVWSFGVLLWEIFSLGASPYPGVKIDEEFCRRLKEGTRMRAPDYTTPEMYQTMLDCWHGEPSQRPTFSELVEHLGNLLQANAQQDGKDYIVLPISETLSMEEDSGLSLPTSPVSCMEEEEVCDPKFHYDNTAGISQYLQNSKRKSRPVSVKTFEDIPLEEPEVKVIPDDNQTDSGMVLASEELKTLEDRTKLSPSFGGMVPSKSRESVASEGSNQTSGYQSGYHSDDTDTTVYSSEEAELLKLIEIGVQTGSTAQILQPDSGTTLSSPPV
Sequence of CSK(h) (P41240 whole entry): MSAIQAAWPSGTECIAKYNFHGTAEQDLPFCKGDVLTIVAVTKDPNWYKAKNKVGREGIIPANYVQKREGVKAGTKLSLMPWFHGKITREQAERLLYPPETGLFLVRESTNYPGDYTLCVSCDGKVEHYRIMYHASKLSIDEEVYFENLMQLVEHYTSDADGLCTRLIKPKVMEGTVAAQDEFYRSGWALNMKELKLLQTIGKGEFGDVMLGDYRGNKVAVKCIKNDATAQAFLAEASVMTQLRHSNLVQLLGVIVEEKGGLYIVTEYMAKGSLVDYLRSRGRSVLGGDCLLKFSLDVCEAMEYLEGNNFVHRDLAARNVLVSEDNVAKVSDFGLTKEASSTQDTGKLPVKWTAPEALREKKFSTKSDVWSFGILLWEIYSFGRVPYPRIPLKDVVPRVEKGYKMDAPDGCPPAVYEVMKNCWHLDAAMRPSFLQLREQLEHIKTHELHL

For the substance H-YARAAARQARAKALARQLGVAA-OH [MMI-0100], the activity at 100 µM at KDR(h) is 100%; at PKG1α(h), 82%; on SGK3(h), 95%; at Tec(h)activated, 100%; on DCAMKL2(h) it was 146%; at CSK(h), 70%.

For “HRRIKAWLKKIKALARQLGVAA (Mammalian) [MMI-0500]”, the “% activity” value in the assay with KDR(h) is listed as 15%; with PKG1α(h) it was 25%; with SGK3(h), -3%; in the assay with Tec(h)activated, 33%; with DCAMKL2(h), 56%; in the assay with CSK(h) it was 2%.

On to “YARAAARQARAKALNRQLGVA (Mammalian) [MMI-0200]”, for which the “% activity” value turned out to be 110% with KDR(h); 70% with PKG1α(h); 58% with SGK3(h); 77% in the assay with Tec(h)activated; 131% with DCAMKL2(h); 33% with CSK(h).

The values above are taken from patent US10087225B2, “Formulation of MK2 inhibitor peptides” (MOERAE MATRIX, INC., priority 2015, dated 2018).
